From PMC10319729 (Scientific Reports, 2023) come the findings set out here.

The assay concerns the target T1, LGR4 (HA-LGR4) over-expressed on HEK293 cells (UniProt Q9BXB1 25-951).
T1 construct: Plasmid and cell line described in earlier work; also called HEK293-LGR4; full-length LGR4; source: HEK293 cells over-expressing the receptor (HEK293-LGR4), on cells
Description: whole-cell binding, fluorescence plate reader; His-tagged ligand in 3x serial dilution on cells in 96-well plates, on ice 1 h, washed, fixed with 4.2% paraformaldehyde, Alexa488-labeled anti-His antibody; half-maximum binding (KD) from a three-parameter dose-response fit. To be noted: one partner purified.

B1: R2FuTSP-His (RSPO2 furin domain with TSP domain, His-tagged) (domain or fragment, UniProt Q6UXX9 22-205, looked up)
chain: QGNRWRRSKRASYVSNPICKGCLSCSKDNGCSRCQQKLFFFLRREGMRQYGECLHSCPSGYYGHRAPDMNRCARCRIENCDSCFSKDFCTKCKVGFYLHRGRCFDECPDGFAPLEETMECVEGCEVGHWSEWGTCSRNNRTCGFKWGLETRTRQIVKKPVKDTILCPTIAESRRCKMTMRHCPG
notes: R-spondin 2 (RSPO2), furin domain with the thrombospondin-like (TSP) domain; source: bought: R&D Systems
The term Kd denotes a measure of binding affinity in units of concentration. A high value points to weaker binding. The molecule B1 yielded a Kd of 2.2 ± 0.3 nM.
